B1: MonoCTLA4-Ig (Fc fusion)
chain: MHVAQPAVVLASSRGIASFVCEYASPGKATEVRVTVLRQADSQVTEVCAATYMMGNELTFLDDSICTGTSSGNQVNLTIQGLRAMDTGLYICKVELMYPPPYYLGIGNGTQIYVIAKEKKPSYNRGLCENAPNRARMQEPKSSDKTHTSPPSPAPELLGGSSVFLFPPKPKDTLMISRTPEVTCVVVDVSHEDPEVKFNWYVDGVEVHNAKTKPREEQYNSTYRVVSVLTVLHQDWLNGKEYKCKVSNKALPAPIEKTISKAKGQPREPQVYTLPPSRDELTKNQVNLTCLVKGFYPSDIAVEWESNGQPENNYKTTPPVLDSDGSFFLNSTLTVDKSRWQQGNVFSCSVMHEALHNHYTQKSLSLSPGK
notes: not shown: C-terminal FLAG tag
B2: human CD80 (hCD80) expressed on CHO cells (ligand, UniProt P33681 35-288, looked up)
chain: VIHVTKEVKEVATLSCGHNVSVEELAQTRIYWQKEKKMVLTMMSGDMNIWPEYKNRTIFDITNNLSIVILALRPSDEGTYECVVLKYEKDAFKREHLAEVTLSVKADFPTPSISDFEIPTSNIRRIICSTSGGFPEPHLSWLENGEELNAINTTVSQDPETELYAVSSKLDFNMTTNHSFMCLIKYGHLRVNQTFNWNTTKQEHFPDNLLPSWAITLISVNGIFVICCLTYCFAPRCRERRRNERLRRESVRPV
notes: whole, on cells; In most assays co-expressed with human PDL1 on the same CHO cell (cis-CD80:PDL1 clones, e.g. clone 12); also called B7-1; cis-CD80:PDL1 cells

Assays:
[1] = target: B2; assay: flow cytometry, anti-hIgG1 staining, cis-CD80:PDL1 CHO cells
Method: After washing to remove excess fusion protein and antibody, cell pellets were resuspended in 100 μL of FACS buffer (PBS with 10% FCS). Flow cytometry was performed on viable cells (based on SSC/FSC) using a BD LSRII or LSRFortessa (BD Biosciences), and cell sorting was performed using a BD Influx (BD Biosciences) with a 100 μm nozzle. […] All antibodies were used at a final dilution of 1:200 from stock.

[2] = target: T1, human PDL1 (hPDL1) expressed on CHO cells (human, UniProt Q9NZQ7 19-290); assay: flow cytometry, CHO cells co-expressing human CD80 and PDL1 (cis interaction)
T1 construct: whole, on cells; Expressed alone (parental PDL1 clone) or with CD80 (cis-CD80:PDL1 clones)
T1 sequence (Q9NZQ7 19-290): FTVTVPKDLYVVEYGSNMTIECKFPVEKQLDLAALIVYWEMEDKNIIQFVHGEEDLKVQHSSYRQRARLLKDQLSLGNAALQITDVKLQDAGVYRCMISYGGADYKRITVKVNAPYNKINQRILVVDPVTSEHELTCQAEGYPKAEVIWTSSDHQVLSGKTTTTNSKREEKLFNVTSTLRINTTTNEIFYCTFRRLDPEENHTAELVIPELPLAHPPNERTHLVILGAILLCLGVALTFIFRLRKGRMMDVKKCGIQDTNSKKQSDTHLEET

| binding result [1] | binding result [2] | Binder |
| --- | --- | --- |
| binds |  | B1 |
|  | binds | B2 |

Reference: patent US20250011388A1 (MONASH UNIVERSITY, published 2025)
